Laboratory results: patent EP4682164A1 (Curogen Technology Co., Ltd., dated 2026)

T1: human IL-17F (IL-17FF homodimer) (human, UniProt Q96PD4 31-163)
T1 sequence (looked up): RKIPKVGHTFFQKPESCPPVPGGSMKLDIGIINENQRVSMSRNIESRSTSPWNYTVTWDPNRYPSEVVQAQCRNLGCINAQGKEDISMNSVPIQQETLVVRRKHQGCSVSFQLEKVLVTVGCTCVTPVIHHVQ


What was measured:
[1] = biological target: T2, human IL-17A (IL-17AA homodimer) (human, UniProt Q16552 20-155, limits assumed); assay: ELISA, cytokine coated on plate, binder titrated, HRP secondary antibody
T2 construct: also called hIL-17A; hIL-17AA

human TNFα [2] = biological target: T3, human TNFα (human, UniProt P01375 77-233); assay: as above
T3 construct: also called hTNFα

[3] = biological target: T1, human IL-17F (IL-17FF homodimer); assay: cell-based or functional assay
[4] = biological target: T2, human IL-17A (IL-17AA homodimer); assay: cell-based or functional assay
human TNFα [5] = biological target: T3, human TNFα; assay: cell-based or functional assay

T2 sequence (Q16552 20-155 limits assumed): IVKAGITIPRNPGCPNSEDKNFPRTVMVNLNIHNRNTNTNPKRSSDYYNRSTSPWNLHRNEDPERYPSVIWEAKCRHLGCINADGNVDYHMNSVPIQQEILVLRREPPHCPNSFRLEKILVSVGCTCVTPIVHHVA
T3 sequence (P01375 77-233 limits assumed): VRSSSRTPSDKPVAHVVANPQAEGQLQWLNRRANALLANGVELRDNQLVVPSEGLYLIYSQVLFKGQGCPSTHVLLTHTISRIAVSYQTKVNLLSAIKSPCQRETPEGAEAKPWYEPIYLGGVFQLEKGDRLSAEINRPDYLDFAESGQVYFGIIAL

Row | EC50 [1] [µg/mL] | EC50 (human TNFα [2]) [µg/mL] | IC50 (ng/mL) of hIL-17F, SEAP reporter assay in HEK-Blue IL-17 cells [3] [ng/mL] | IC50 (ng/mL) of hIL-17A, SEAP reporter assay in HEK-Blue IL-17 cells [4] [ng/mL] | IC50 (ng/mL) of hTNFα, SEAP reporter assay in HEK-Blue TNFα cells (human TNFα [5]) [ng/mL] | Binder
1 | 0.0103 | 0.0233 | 2230 | 24.7 | 249 | T1-T4-06 (Fc fusion, also called T1b-Fc-T4wt; IL-17RA/RC-Fc-TNFR2) LRLLDHRAPVCSQPGLNCTVKNSDCLDDSWIHPRNLTPSSPKDLQIQLHFAHTQQGDLVPVAHIEWTLQTDASILYLEGAELSVLQLDTNERLCVRFEFLSKLRHHHRRWRFTFSHFVVDPGQEYEVTVHHLPKPIPDGDPNHQSKNFLVPDCEHARMKVTTPCMSSALPWLNVSADGDNVHLVLNVSEEQHFGLSLYWNQVQGPPKPRWHKNLTGPQIITLNHTDLVPCLCIQVWPLEPDSVRTNICPFREDPRAHQNLWQAARLRLLTLQSWLLDAPCSLPAEAALCWRAPGGDPCQPLVPPLSWENVTVDKVLEFPLLKGHPNLCVQVNSSEKLQLQECLWADSLGPLKDDVLLLETRGPQDNRSLCALEPSGCTSLPSKASTRAARLGEYLLQDLQSGQCLQLWDDDLGALWACPMDKYIHKTGIEGRMDRNTGRGGEEKKKEKEKEEQEERETKTPECPSHTQPLGVFLFPPKPKDTLMISRTPEVTCVVVDVSQEDPEVQFNWYVDGVEVHNAKTKPREEQFNSTYRVVSVLTVLHQDWLNGKEYKCKVSNKGLPSSIEKTISKAKGQPREPQVYTLPPSQEEMTKNQVSLTCLVKGFYPSDIAVEWESNGQPENNYKTTPPVLDSDGSFFLYSRLTVDKSRWQEGNVFSCSVMHEALHNHYTQKSLSLSLGKGGGGSGGGGSGGGGSLELPAQVAFTPYAPEPGSTCRLREYYDQTAQMCCSKCSPGQHAKVFCTKTSDTVCDSCEDSTYTQLWNWVPECLSCGSRCSSDQVETQACTREQNRICTCRPGWYCALSKQEGCRLCAPLRKCRPGFGVARPGTETSDVVCKPCAPGTFSNTTSSTDICRPHQICNVVAIPGNASMDAVCTSTSPTRSMAPGAVHLPQPVSTRSQHTQPTPEPSTAPSTSFLLPMGPSPPAEGSTGD
2 | – | – | 1030 | 23.7 | – | T1-T4-30 (Fc fusion) LRLLDHRAPVCSQPGLNCTVKNSDCLDDSWIHPRNLTPSSPKDLQIQLHFAHTQQGDLVPVAHIEWTLQTDASILYLEGAELSVLQLDTNERLCVRFEFLSKLRHHHRRWRFTFSHFVVDPGQEYEVTVHHLPKPIPDGDPNHQSKNFLVPDCEHPRMKVTTPCMSSALPWLNVSADGDNVHLVLNVSEEQHFGLSLYWNQVQGPPKPRWHKNLTGPQIITLNHTDLVPCLCIQVWPLEPDSVRTNICPFREDPRAHQNLWQAARLRLLTLQSWLLDAPCSLPAEAALCWRAPGGDPCQPLVPPLSWENVTVDKVLEFPLLKGHPNLCVQVNSSEKLQLQECLWADSLGPLKDDVLLLETRGPQDNRSLCALEPSGCTSLPSKASTRAARLGEYLLQDLQSGQCLQLWDDDLGALWACPMDKYIHKTGIEGRMDRNTGRGGEEKKKEKEKEEQEERETKTPECPSHTQPLGVFLFPPKPKDTLMISRTPEVTCVVVDVSQEDPEVQFNWYVDGVEVHNAKTKPREEQFNSTYRVVSVLTVLHQDWLNGKEYKCKVSNKGLPSSIEKTISKAKGQPREPQVYTLPPSQEEMTKNQVSLTCLVKGFYPSDIAVEWESNGQPENNYKTTPPVLDSDGSFFLYSRLTVDKSRWQEGNVFSCSVMHEALHNHYTQKSLSLSLGKGGGGSGGGGSGGGGSLELPAQVAFTPYAPEPGSTCRLREYYDQTAQMCCSKCSPGQHAKVFCTKTSDTVCDSCEDSTYTQLWNWVPECLSCSSRCSSDQVETQACTREQNRICTCRPGWYCALSKQEGCRLCAPLRKCRPGFGVARPGTETSDVVCKPCAPGTFSNTTSSTDICRPHQICNVVAIPGNASMDAVCTSTSPTRSMAPGAVHLPQPVSTRSQHTQPTPEPSTAPSTSFLLPMGPSPPAEGSTGD
3 | 0.0092 | – | – | 26.9 | 138 | T1-T4-13 (Fc fusion, also called T1c-Fc-T4f; IL-17RA/RC-Fc-TNFR2) LRLLDHRAPVCSQPGLNCTVKNSDCLDDSWIHPRNLTPSSPKDLQIQLHFAHTQQGDLVPVAHIEWTLQTDASILYLEGAELSVLQLDTNERLCVRFEFLSKLRHHHRRWRFTFSHFVVDPGQEYEVTVHHLPKPIPDGDPNHQSKNFLVPDCEHPRMKVTTPCMSSALPWLNVSADGDNVHLVLNVSEEQHFGLSLYWNQVQGPPKPRWHKNLTGPQIITLNHTDLVPCLCIQVWPLEPDSVRTNICPFREDPRAHQNLWQAARLRLLTLQSWLLDAPCSLPAEAALCWRAPGGDPCQPLVPPLSWENVTVDKVLEFPLLKGHPNLCVQVNSSEKLQLQECLWADSLGPLKDDVLLLETRGPQDNRSLCALEPSGCTSLPSKASTRAARLGEYLLQDLQSGQCLQLWDDDLGALWACPMDKYIHKTGIEGRMDRNTGRGGEEKKKEKEKEEQEERETKTPECPSHTQPLGVFLFPPKPKDTLMISRTPEVTCVVVDVSQEDPEVQFNWYVDGVEVHNAKTKPREEQFNSTYRVVSVLTVLHQDWLNGKEYKCKVSNKGLPSSIEKTISKAKGQPREPQVYTLPPSQEEMTKNQVSLTCLVKGFYPSDIAVEWESNGQPENNYKTTPPVLDSDGSFFLYSRLTVDKSRWQEGNVFSCSVMHEALHNHYTQKSLSLSLGKGGGGSGGGGSGGGGSLELPAQVAFTPYAPEPGSTCRLREYYDQTAQMCCAKCPPGQHAKVFCTKTSDTVCDSCEDSTYTQLWNWVPECLSCGSRCSSDQVETQACTREQNRICTCRPGWYCALSKQEGCRLCAPLSKCRPGFGVARPGTETSDVVCKPCAPGTFSNTTSSTDICRPHQICSVVAIPGNASMDAVCTSTSPTRSMAPGAVHLPQPVSTRSQHTQPTPGPSTAPSTSILLPMGPSPPAEGSTGD
4 | 0.00841 | – | – | 19.9 | 116 | T1-T4-12 (Fc fusion, also called T1c-Fc-T4e; IL-17RA/RC-Fc-TNFR2) LRLLDHRAPVCSQPGLNCTVKNSDCLDDSWIHPRNLTPSSPKDLQIQLHFAHTQQGDLVPVAHIEWTLQTDASILYLEGAELSVLQLDTNERLCVRFEFLSKLRHHHRRWRFTFSHFVVDPGQEYEVTVHHLPKPIPDGDPNHQSKNFLVPDCEHPRMKVTTPCMSSALPWLNVSADGDNVHLVLNVSEEQHFGLSLYWNQVQGPPKPRWHKNLTGPQIITLNHTDLVPCLCIQVWPLEPDSVRTNICPFREDPRAHQNLWQAARLRLLTLQSWLLDAPCSLPAEAALCWRAPGGDPCQPLVPPLSWENVTVDKVLEFPLLKGHPNLCVQVNSSEKLQLQECLWADSLGPLKDDVLLLETRGPQDNRSLCALEPSGCTSLPSKASTRAARLGEYLLQDLQSGQCLQLWDDDLGALWACPMDKYIHKTGIEGRMDRNTGRGGEEKKKEKEKEEQEERETKTPECPSHTQPLGVFLFPPKPKDTLMISRTPEVTCVVVDVSQEDPEVQFNWYVDGVEVHNAKTKPREEQFNSTYRVVSVLTVLHQDWLNGKEYKCKVSNKGLPSSIEKTISKAKGQPREPQVYTLPPSQEEMTKNQVSLTCLVKGFYPSDIAVEWESNGQPENNYKTTPPVLDSDGSFFLYSRLTVDKSRWQEGNVFSCSVMHEALHNHYTQKSLSLSLGKGGGGSGGGGSGGGGSLELPAQVAFTPYAPEPGSTCRLREYYDQTAQMCCAKCPPGQHAKVFCTKTSDTVCDSCEDSTYTQLWNWVPECLSCGSRCSSDQVETQACTREQNRICTCRPGWYCALSKQEGCRLCAPLSKCRPGFGVARPGTETSDVVCKPCAPGTFSNTTSSTDICRPHQICSVVAIPGNASMDAVCTSTSPTRSMAPGAVHLPQPVSTRSQHTQPTPGPSTAPSTSFLLPMGPSPPAEGSTGD
5 | – | 0.0406 | 1260 | 20.5 | – | T1-T4-32 (Fc fusion, also called T1c-Fcb-T4g; IL-17RA/RC-Fc-TNFR2) LRLLDHRAPVCSQPGLNCTVKNSDCLDDSWIHPRNLTPSSPKDLQIQLHFAHTQQGDLVPVAHIEWTLQTDASILYLEGAELSVLQLDTNERLCVRFEFLSKLRHHHRRWRFTFSHFVVDPGQEYEVTVHHLPKPIPDGDPNHQSKNFLVPDCEHPRMKVTTPCMSSALPWLNVSADGDNVHLVLNVSEEQHFGLSLYWNQVQGPPKPRWHKNLTGPQIITLNHTDLVPCLCIQVWPLEPDSVRTNICPFREDPRAHQNLWQAARLRLLTLQSWLLDAPCSLPAEAALCWRAPGGDPCQPLVPPLSWENVTVDKVLEFPLLKGHPNLCVQVNSSEKLQLQECLWADSLGPLKDDVLLLETRGPQDNRSLCALEPSGCTSLPSKASTRAARLGEYLLQDLQSGQCLQLWDDDLGALWACPMDKYIHKTGIEGRMDRNTGRGGEEKKKEKEKEEQEERETKTPECPSHTQPLGVFLFPPKPKDTLMISRTPEVTCVVVDVSQEDPEVQFNWYVDGVEVHNAKTKPREEQFNSTYRVVSVLTVLHQDWLNGKEYKCKVSNKGLPSSIEKTISKAKGQPREPQVYTLPPSQEEMTKNQVSLTCLVKGFYPSDIAVEWESNGQPENNYKTTPPVLDSDGSFFLYSRLTVDKSRWQEGNVFSCSVMHEALKFHYTQKSLSLSLGKGGGGSGGGGSGGGGSLELPAQVAFTPYAPEPGSTCRLREYYDQTAQMCCAKCPPGQHAKVFCTKTSDTVCDSCEDSTYTQLWNWVPECLSCSSRCSSDQVETQACTREQNRICTCRPGWYCALSKQEGCRLCAPLSKCRPGFGVARPGTETSDVVCKPCAPGTFSNTTSSTDICRPHQICSVVAIPGNASMDAVCTSTSPTRSMAPGAVHLPQPVSTRSQHTQPTPGPSTAPSTSILLPMGPSPPAEGSTGD
